Assay results from patent publication US20230201308A1, “TREATMENT OF CORONAVIRUS INFECTION WITH […]” (Eiger Biopharmaceuticals, Inc., priority 2020, published 2023).
Where two headings read alike, the source gives them in different places.

Key:
SARS-CoV-2 = test: Third trial (TOGETHER): virological assessment, quantitative real-time PCR of mid-turbinate swabs; type: in vivo, human; settings: for proportion of participants with a negative swab for SARS-CoV-2 RNA: Canadian cohort
[1] = for Aes: outside of the directed symptom categories
Description: Detailed directed and open-ended symptoms were assessed serially. Because of overlap between symptoms of COVID-19 and potential peginterferon-lambda Aes, symptoms were recorded and Aes were considered any symptom outside of the directed symptom assessment. Laboratory AE severity was graded using the Common Terminology Criteria for Adverse Events (CTCAE) Version 5.0.

[2] = Day 7, high baseline viral load
[3] = Baseline Viral Load <10E6 copies/mL
[4] = Baseline Viral Load ≥10E6 copies/mL
[5] = n=30, listed as Peginterferon Lambda
[6] = n=30, listed as peginterferon-lambda

B1: pegylated interferon lambda-1a (protein)
chain: MKPTTTGKGCHIGRFKSLSPQELASFKKARDALEESLKLKNWSCSSPVFPGNWDLRLLQVRERPVALEAELALTLKVLEAAAGPALEDVLDQPLHTLHHILSQLQACIQPQPTAGPRPRGRLHHWLHRLQEAPKKESAGCLEASVTFNLFRLLTRDLKYVADGNLSLRTSTHPEST
modifications: PEG
notes: 180 mcg subcutaneous injection
proportion of participants with a negative swab for SARS-CoV-2 RNA (SARS-CoV-2; Day 0 post injection): 0 | proportion of participants with a negative swab for SARS-CoV-2 RNA (SARS-CoV-2; Day 1 post injection): 0 | proportion of participants with a negative swab for SARS-CoV-2 RNA (SARS-CoV-2; Day 2 post injection): 7 | proportion of participants with a negative swab for SARS-CoV-2 RNA (SARS-CoV-2; Day 3 post injection): 27 | proportion of participants with a negative swab for SARS-CoV-2 RNA (SARS-CoV-2; Day 4 post injection): 40 | proportion of participants with a negative swab for SARS-CoV-2 RNA (SARS-CoV-2; Day 5 post injection): 60 | proportion of participants with a negative swab for SARS-CoV-2 RNA (SARS-CoV-2; Day 6 post injection): 64 | odds ratio, below the limit of quantitation vs placebo (SARS-CoV-2; [2]): 2.13 | patients below the limit of quantitation (SARS-CoV-2; [2]): 50.5% | treatment effect on viral load (Beta) (SARS-CoV-2; Day 7, high baseline viral load (≥192,841,278 copies/mL)): −1.01 | median viral load decline from baseline (SARS-CoV-2; Day 7, hospitalized patients): 7.19 log copies/mL | proportion of participants with a negative swab for SARS-CoV-2 RNA (SARS-CoV-2; Day 7 post injection): 86 | proportion of participants with a negative swab for SARS-CoV-2 RNA (SARS-CoV-2; Day 8 post injection): 92 | proportion of participants with a negative swab for SARS-CoV-2 RNA (SARS-CoV-2; Day 9 post injection): 85 | proportion of participants with a negative swab for SARS-CoV-2 RNA (SARS-CoV-2; Day 10 post injection): 92 | proportion of participants with a negative swab for SARS-CoV-2 RNA (SARS-CoV-2; Day 11 post injection): 100 | proportion of participants with a negative swab for SARS-CoV-2 RNA (SARS-CoV-2; Day 12 post injection): 100 | proportion of participants with a negative swab for SARS-CoV-2 RNA (SARS-CoV-2; Day 13 post injection): 100 | proportion of participants with a negative swab for SARS-CoV-2 RNA (SARS-CoV-2; Day 14 post injection): 100 | median log decline in viral load (SARS-CoV-2; by Day 7, high baseline viral load): 8.29 | viral loads by Day 7 (SARS-CoV-2; final analysis): significantly lowered | treatment effect on viral load (Beta) (SARS-CoV-2; low baseline viral load group): 0.22 | deaths ([1]; 14 days): No deaths | OR symptom progression vs Placebo, All Symptoms ([1]; All samples): 3.15 | OR symptom progression vs Placebo, Fever Syndrome ([1]; All samples): 1.69 | OR symptom progression vs Placebo, Gastrointestinal ([1]; All samples): 0.48 | OR symptom progression vs Placebo, Mood ([1]; All samples): 0.90 | OR symptom progression vs Placebo, Musculoskeletal ([1]; All samples): 1.80 | OR symptom progression vs Placebo, Neurologic ([1]; All samples): 5.07 | OR symptom progression vs Placebo, Respiratory ([1]; All samples): 4.67 | OR symptom progression vs Placebo, Skin ([1]; All samples): 0.76 | OR symptom progression vs Placebo, All Symptoms [1, 3]: 1.63 | OR symptom progression vs Placebo, Fever Syndrome [1, 3]: 4.83 | OR symptom progression vs Placebo, Gastrointestinal [1, 3]: 0.40 | OR symptom progression vs Placebo, Mood [1, 3]: 0.32 | OR symptom progression vs Placebo, Musculoskeletal [1, 3]: 2.55 | OR symptom progression vs Placebo, Neurologic [1, 3]: 1.60 | OR symptom progression vs Placebo, Respiratory [1, 3]: 3.67 | OR symptom progression vs Placebo, Skin [1, 3]: 0.51 | OR symptom progression vs Placebo, All Symptoms [1, 4]: 2.39 | OR symptom progression vs Placebo, Fever Syndrome [1, 4]: 1.24 | OR symptom progression vs Placebo, Gastrointestinal [1, 4]: 0.58 | OR symptom progression vs Placebo, Mood [1, 4]: 1.29 | OR symptom progression vs Placebo, Musculoskeletal [1, 4]: 1.19 | OR symptom progression vs Placebo, Neurologic [1, 4]: 2.61 | OR symptom progression vs Placebo, Respiratory [1, 4]: 5.88 | OR symptom progression vs Placebo, Skin [1, 4]: 1.90 | Emergency Room visits ([1]; n=30): 1 | Hospital admissions ([1]; n=30): 1 | Lab Abnormalities (grade 3 or 4), Alanine aminotransferase (ALT) ([1]; n=30): 1 | Lab Abnormalities (grade 3 or 4), Aspartate aminotransferase (AST) ([1]; n=30): 1 | Lab Abnormalities (grade 3 or 4), Creatinine ([1]; n=30): 0 | Lab Abnormalities (grade 3 or 4), Hemoglobin ([1]; n=30): 0 | Lab Abnormalities (grade 3 or 4), Lymphocytes ([1]; n=30): 0 | Lab Abnormalities (grade 3 or 4), Neutrophils ([1]; n=30): 0 | Lab Abnormalities (grade 3 or 4), Platelets ([1]; n=30): 0 | Lab Abnormalities (grade 3 or 4), Total bilirubin ([1]; n=30): 0 | Lab Abnormalities (grade 3 or 4), White Blood Cells ([1]; n=30): 0 | Treatment-Related Aes ([1]; n=30): 0 | Treatment-Related SAEs ([1]; n=30): 0 | Severe Symptoms, number of patients ([1]; n=30, 14 days): 7 | Severe Symptoms, reports ([1]; n=30, 14 days): 20 | SAEs [1, 5]: 1 | SAEs [1, 6]: One | Aes [1, 5]: 2 | Aes [1, 6]: two | aminotransferase elevations compared to placebo ([1]; single 180 mcg s.c.): higher rate of transient aminotransferase elevations | tolerability ([1]; single 180 mcg s.c.): well-tolerated with few adverse events
